Source: US8663916B2 (priority 2006, dated 2014)
Like-named read-outs stand apart in the source and are kept apart here.

B1: Ph-CA2: fusion peptide of colicin Ia with Candida albicans alpha-mating pheromone n-terminal to the colicin Ia; SEQ ID NO:7; from plasmid pCHCCA2 (protein)
chain: GFRLYNFGYFEPGKDAINFTTEFLKSVSEKYGAKAEQLAREMAGQAKGKKIRNVEEALKTYEKYRADINKKINAKDRAAIAAALESVKLSDISSNLNRFSRGLGYAGKFTSLADWITEFGKAVRTENWRPLFVKTETIIAGNAATALVALVFSILTGSALGIIGYGLLMAVTGALIDESLVEKANKFWGI
modifications: Amino acid sequence of Ph-CA2
notes: fusion peptide of colicin Ia with Candida albicans alpha-mating pheromone n-terminal to the colicin Ia; from plasmid pCHCCA2
B2: Ph-CA1: fusion peptide of colicin Ia with Candida albicans alpha-mating pheromone c-terminal to the colicin Ia; SEQ ID NO:5; from plasmid pCHCCA1 (protein)
chain: DAINFTTEFLKSVSEKYGAKAEQLAREMAGQAKGKKIRNVEEALKTYEKYRADINKKINAKDRAAIAAALESVKLSDISSNLNRFSRGLGYAGKFTSLADWITEFGKAVRTENWRPLFVKTETIIAGNAATALVALVFSILTGSALGIIGYGLLMAVTGALIDESLVEKANKFWGIGFRLYNFGYFEPGK
modifications: Amino acid sequence of Ph-CA1
notes: fusion peptide of colicin Ia with Candida albicans alpha-mating pheromone c-terminal to the colicin Ia; from plasmid pCHCCA1

How the values were obtained:
[1] = test system: ATCC 10231 C. albicans cells; assay: cell growth inhibition assay in M-H liquid medium (turbidity, filament sedimentation, microscopy); type: cell-based, Candida albicans; settings: for spores under microscope: 2 ul treated medium on a slide, Ph-CA1 10 ug/ml, amphotericin B 2 ug/ml, FIG. 5
From the text: FIG. 4 depicts the inhibition effects of Ph-CA against the growth of ATCC 10231 C. albicans cells in M-H liquid medium. The amount of sedimentary fungal filaments at the bottom of flasks indicated the inhibition effects of treatment agents. (A) Control, (B) fluconazole, (C) amphotericin B, (D) Ph-SA, (E) Ph-CA2 produced by pCHCCA2 plasmid and (F) Ph-CA1.
FIG. 5 depicts the inhibition effects of Ph-CA against the growth of C. albicans cells in liquid medium. The amount of spores and filaments of ATCC 10231 C. albicans cells indicated the inhibition effects. (A) Control, (B) fluconazole, (C) amphotericin B, (D) Ph-SA, (E) Ph-CA2 (F) Ph-CA1. X400.
In vitro cell growth inhibition assays were performed in 100 ml Klett flasks containing 10 ml of M-H medium which were monitored turbimetrically with a BioRad 550 microplate reader at OD595 nm every 60 min. The filament (mycelium) precipitation at the bottom of flask was counted with a digital photo-recorder every 6 hrs. Cells were inoculated to an initial cell density of about 2.5×10^5 CFU/ml and shaken at 200 rpm on an orbital shaker at 35° C. Sedimentary fungal filaments appeared in about 36 hrs growing.
Ph-CA1 and Ph-CA2 were added at the start of the culture. The same amount of borate stock solution (50 mM borate, PH9.0), Ph-SA (pheromonicin constructed by colicin Ia and staphylococcal pheromone AgrD1)(10 ug/ml) and several antibiotics preparations (2 ug/ml amphotericin B, 6 ug/ml fluconazole) were used as controls. All assays were expressed in turbidometric absorbance units measured at 595 nm and pictures of the filament sedimentation at the bottom of the flask were taken.

Magnaporthe grisea [2] = type: in vivo, rice (seed, gangyou 725); settings: for Grades of impaired leaves 0 (number of leaves) / Grades of impaired leaves 1 (number of leaves) / Grades of impaired leaves 3 (number of leaves) / Grades of impaired leaves 5 (number of leaves) / Incident rate / Infected index / Protecting efficacy: seven days after treatment, sprayed twice: tricyclazole 0.5 and 1 mg/ml, Ph-CA1 1 and 2 ug/ml, 200 leaves
Magnaporthe grisea [3] = type: in vivo, rice (seed, gangyou 725); settings: sprayed once at head stage: tricyclazole 1 mg/ml, Ph-CA1 2 ug/ml
[4] = test system: Candida albicans (ATCC 10231); type: cell-based
[5] = test system: Cryptococcus neoformans (Huaxi 30168 strain); type: cell-based
[6] = test system: Aspergillus flavus (Huaxi 30255 strain); type: cell-based
[7] = test system: Magnaporthe grisea (ACCC 30320 strain); type: cell-based; settings: PDA solid medium; 100 ul Ph-CA1 25 and 50 ug/ml; FIG. 9
[8] = test system: Fusarium moniforme (ACCC 30133 strain); type: cell-based
[9] = test system: Cryptococcus neoformans, Aspergillus flavus, Magnaporthe grisea and Fusarium moniforme cells; type: cell-based; settings: on a molar basis
[10] = test system: ATCC 10231 C. albicans cells; assay: fluorescent imaging with FITC/propidium iodide; type: cell-based, Candida albicans; settings: 10 ug/ml, 24 hrs; 50 nM FITC/600 nM propidium iodide
Experimental: FIG. 6 depicts the fluorescent imaging of ATCC 10231 C. albicans cells treated by Ph-CA1 and stained with 50 nM FITC/600 nM propidium iodide. […] X400.

C. albicans (ATCC 10231) = assay: systemic candidiasis in mice, survival; type: in vivo, KungMing mice
Experimental: KungMing mice, half male and half female, weighing 18-22 g were injected intraperitoneally with 0.5 ml of C. albicans (ATCC 10231), 10^8 CFU/ml. One hour after C. albicans injection, mice were injected intraperitoneally with 0.9% saline […] alone as control (n=10) (C), or with amphotericin B (n=10, 1 ug/gm/day) (B), or with Ph-CA1 (n=10, 5 ug/gm/day) (A) daily for 14 days. The number of surviving animals was determined every 24 hours (FIG. 11).
KungMing mice, half male and half female, weighing 18-22 g were injected intraperitoneally with 0.7 ml of C. albicans (ATCC 10231), 10^8 CFU/ml. One hour after C. albicans injection, mice were injected in the tail vein with 0.9% saline alone as control (n=10) (C), or with amphotericin B (n=10, 1 ug/gm) (B), or with Ph-CA1 (n=10, 5 ug/gm) (A). The mice were then injected intraperitoneally with 0.9% saline alone, or with amphotericin B (n=10, 1 ug/gm), or with Ph-CA1 (n=10, 5 ug/gm) each day. The number of surviving animals was determined every 24 hours (FIG. 12).

[11] = repeated intraperitoneal dosing in mice, bodyweight and histology; type: in vivo, KungMing mice; settings: 200 ug/mouse/day intraperitoneally for 20 days
Experimental: KungMing mice (n=10), half male and half female, weighing 18-22 g were injected intraperitoneally with Ph-CA1 (200 ug/mouse/day) for 20 days. The bodyweight of all mice was increased.

Row | Molecule | Grades of impaired leaves 0 (number of leaves) (Magnaporthe grisea [2]) | Grades of impaired leaves 1 (number of leaves) (Magnaporthe grisea [2]) | Grades of impaired leaves 3 (number of leaves) (Magnaporthe grisea [2]) | Grades of impaired leaves 5 (number of leaves) (Magnaporthe grisea [2]) | Incident rate (Magnaporthe grisea [2]) | Infected index (Magnaporthe grisea [2]) | Protecting efficacy (Magnaporthe grisea [2]) | Damage rate (Magnaporthe grisea [3]) | Grades of impaired ears 0 (number of ears) (Magnaporthe grisea [3]) | Grades of impaired ears 1 (number of ears) (Magnaporthe grisea [3]) | Grades of impaired ears 3 (number of ears) (Magnaporthe grisea [3]) | Grades of impaired ears 5 (number of ears) (Magnaporthe grisea [3]) | Grades of impaired ears 7 (number of ears) (Magnaporthe grisea [3]) | Grades of impaired ears 9 (number of ears) (Magnaporthe grisea [3]) | Impaired ears rate (Magnaporthe grisea [3]) | Infected index (Magnaporthe grisea [3]) | spores under microscope [1] | antifungal effect on Candida albicans in vitro [1] | further results
1 | OC(Cn1cncn1)(Cn1cncn1)c1ccc(F)cc1F [Fluconazole, fluconazole, reference compound] | – | – | – | – | – | – | – | – | – | – | – | – | – | – | – | – | – | – | effect on growth of C. albicans ([1]; 6 ug/ml, M-H liquid medium): no effect
2 | Cc1cccc2sc3nncn3c12 [Tricyclazole, tricyclazole, reference compound] | 172 | 10 | 12 | 6 | 14 | 4.22 | 75.83 | 1.63% | 184 | 16 | 9 | 2 | 2 | 0 | 13.62% | 3.5 | – | – | –
3 | C[C@@H]1[C@H](O)[C@@H](C)/C=C/C=C/C=C/C=C/C=C/C=C/C=C/[C@H](O[C@@H]2O[C@H](C)[C@@H](O)[C@H](N)[C@@H]2O)C[C@@H]2O[C@](O)(C[C@@H](O)C[C@@H](O)[C@H](O)CC[C@@H](O)C[C@@H](O)CC(=O)O[C@H]1C)C[C@H](O)[C@H]2C(=O)O [amphotericin B, reference compound] | – | – | – | – | – | – | – | – | – | – | – | – | – | – | – | – | scarcely observed | – | effect on growth of C. albicans ([1]; 2 ug/ml, M-H liquid medium): completely inhibited
4 | B1 | – | – | – | – | – | – | – | – | – | – | – | – | – | – | – | – | – | almost had no effect | inhibition effect relative to that of Ph-CA1 ([1]; 10 ug/ml, M-H liquid medium): about 30%
5 | B2 | 67 | 12 | 13 | 8 | 16.5 | 5.05 | 70.94 | 0.53% | 218 | 19 | 5 | 0 | 0 | 0 | 9.92% | 1.56 | scarcely observed | definite antifungal effect | inhibition zone [4]: inhibition-zone; antifungal effects [5]: definite antifungal effects; antifungal effects [6]: definite antifungal effects; antifungal effects [7]: definite antifungal effects; antifungal effects [8]: definite antifungal effects; antifungal effects relative to known antifungal antibiotics [9]: one hundred to one thousand times greater; effect on growth of C. albicans ([1]; 10 ug/ml, M-H liquid medium): completely inhibited; inhibitory effect relative to amphotericin B ([1]; on a molar basis, Ph-CA1 70 kDa, amphotericin B about 0.9 kDa): approximately ten times greater; cell membrane damage (propidium iodide entry, cells stained red) [10]: cells became red; antifungal effect on Candida albicans in vivo (C. albicans (ATCC 10231); in vivo): definite antifungal effect; in vivo antifungal activity against systemic candidiasis relative to amphotericin B (C. albicans (ATCC 10231); on a molar basis, Ph-CA1 5 ug/gm, amphotericin B 1 ug/gm): at least twenty times greater; bodyweight [11]: increased; microscopic findings in livers, kidneys or spleens ([11]; hematoxylin and eosin): no microscopic evidence of necrosis or inflammation; total effects against rice blast disease relative to tricyclazole (Magnaporthe grisea [2]; concentration and molar basis taken together, both in vivo protecting assays (Tables I and II)): 10^4 to 10^5 times; protecting effects relative to tricyclazole (Magnaporthe grisea [2]; on a molar basis, both in vivo protecting assays (Tables I and II)): three hundred times greater
